In publication PMC11960969, “Mdga2 deficiency leads to an aberrant activation of BDNF/TrkB signaling that underlies autism-relevant synaptic and behavioral changes in mice” (PLOS Biology, 2025):

Tested on: hippocampal proteins
Experiment: DIA quantification proteomics, hippocampus of Mdga2+/- vs WT mice
Design: species or system mouse
Settings: S3 Table, downregulated DEPs; for log2FC: Mdga2+/- vs WT mouse hippocampus (HET-HIP-VS-WT-HIP), SE, pvalue and adj_pvalue in own columns c3-c5; for Class: regulation class of the protein, HET-HIP-VS-WT-HIP
Outline: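 Hippocampi from 1.5–2-month-old male Mdga2+/− mice and WT littermates; 100 μg protein trypsin-digested, peptides high-pH fractionated. DDA-built spectral library, DIA by nano-LC–MS/MS with Spectronaut and mProphet QC. DEPs called at fold change >1.1 and p <0.05.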

Molecule	log2FC	Class
sp¦O54983¦CRYM_MOUSE (protein, UniProt O54983 1-313, looked up) Ketimine reductase …: MKRAPAFLSAEEVQDHLRSSSLLIPPLEAALANFSKGPDGGVMQPVRTVVPVAKHRGFLGVMPAYSAAEDALTTKLVTFYEGHSNTAVPSHQASVLLFDPSNGSLLAVMDGNVITAKRTAAVSAIATKLLKPPGSDVLCILGAGVQAYSHYEIFTEQFSFKEVRMWNRTRENAEKFASTVQGDVRVCSSVQEAVTGADVIITVTMATEPILFGEWVKPGAHINAVGASRPDWRELDDELMRQAVLYVDSREAALKESGDVLLSGADIFAELGEVISGAKPAHCEKTTVFKSLGMAVEDLVAAKLVYDSWSSGK	-1.898	Down
sp¦Q8K4I3¦ARHG6_MOUSE (protein, UniProt Q8K4I3 1-771, looked up) Rho guanine nucleotide …: MNPEERLVTWLISLGVLESPKKTVCDPEEFLKSSLKNGVVLCKLINRLLPGSVEKYCLEPQTEADCIDNINDFLKGCATLQVEVFEPDDLYSGANFSKVLNTLLAVNKATEDQLSERPCGRSSSLSAATSSQTNPQVAVPSTAPEQHSEEKAEMTENGSHQLIVKARFNFKQTNEDELSVCKGDIIYVTRVEEGGWWEGTLNGRTGWFPSNYVREIKPSERPLSPKAIKGFDTAPLTKNYYTVVLQNILDTEKEYAKELQSLLVTYLRPLQSNNNLSTVEFTCLLGNFEEVCTFQQTLCQALEECSKFPENQHKVGGCLLNLMPHFKSMYLAYCANHPSAVNVLTQHSDDLERFMENQGASSPGILILTTSLSKPFMRLEKYVTLLQELERHMEDTHPDHQDILKAIIAFKTLMGQCQDLRKRKQLELQILSEPIQAWEGDDIKTLGNVIFMSQVVMQHGACEEKEERYFLLFSSVLIMLSASPRMSGFMYQGKIPIAGMVVNRLDEIEGSDCMFEITGSTVERIVVHCNNNQDFQEWMEQLNRLTKGPTSCGSLSKTSSSSCSTHSSFSSTGQPRGPLEPPQIIKPWSLSCLRPAPPLRPSAALGYKERMSYILKESSKSPKTMKKFLHKRKTERKASEEEYVIRKSTAALEEDAQILKVIEAYCTSASFQQGTRKDSVPQVLLPEEEKLIIEETRSNGQTIIEEKSLVDTVYALKDEVKELKQENKKMKQCLEEELKSRKDLEKLVRKLLKQTDECIRSESSSKTSILQ	-1.975	Down
sp¦Q922B6¦TRAF7_MOUSE (protein, UniProt Q922B6 1-594, looked up) E3 ubiquitin-protein ligase …: MPPINTPRRSDSAISVRSLHSESSMSLRSTFSLPEEEEEPEPLVFAEQPSVKLCCQLCCSVFKDPVITTCGHTFCRRCALKSEKCPVDNAKLTVVVNNIAVAEQIGELFIHCRHGCHAAGTGKPGVFEVDPRGCPFTIKLSARKDHESSCDYRPVRCPNNPSCPPLLKMNLEAHLKECEHIKCPHSKYGCTFIGNQDTYETHLETCRFEGLKEFLQQTDDRFHEMHVALAQKDQEIAFLRSMLGKLSEKIDQLEKSLELKFDVLDENQSKLSEDLMEFRRDASMLNDELSHINARLNMGILGSYDPQQIFKCKGTFVGHQGPVWCLCVYSMGDLLFSGSSDKTIKVWDTCTTYKCQKTLEGHDGIVLALCIQGCKLYSGSADCTIIVWDIQNLQKVNTIRAHDNPVCTLVSSHNMLFSGSLKAIKVWDIVGTELKLKKELTGLNHWVRALVAAQSYLYSGSYQTIKIWDIRTLDCIHVLQTSGGSVYSIAVTNHHIVCGTYENLIHVWDIESKEQVRTLTGHVGTVYALAVISTPDQTKVFSASYDRSLRVWSMDNMICTQTLLRHQGSVTALAVSRGRLFSGAVDSTVKVWTC	-2.686	Down
sp¦Q3TBL6¦TP8L3_MOUSE (protein, UniProt Q3TBL6 1-204, looked up) Tumor necrosis factor …: MDSDSGEQSEGEPGTAAGPHVFSSKNLALQAQKKILSKIASKTVANMLIDDTSSEIFDELYKVTEIHTHNKKEAHKIMKDAIKVAIKIGILYRNKQFSQEEVIIVEKLRKKLNQTAMTMVSFYEVEYTFDTNVLSKLLHECKDLVHELVQRHLTPRTHGRINHVFNHFADVEFLSTLYGPHGNCRPNLKRICEGINKLLDDKIL	-2.713	Down
sp¦Q5PR69¦CRAD_MOUSE (protein, UniProt Q5PR69 1-1291, looked up) Capping protein-inhibiting …: MGARAFSHDSIFIPDGGAESEQTVQAMSQDNILGKVKTLQRQLGKNIKFGQRPSNAIPMKKAGSTDASSEEDFVLTSPMEIVTQQDIVPSDTENKSSDTPSSSSPLNLPEAGSDMEEKVAPVKPSRPKRHLSSAGTIESVNLDAIPLAIARLDNSAARHKLAVKPKNQRVSRKHRWLAQDRQNEPGSFESQSSLDQNGQLGEDKHIWHGEEPEPLESHEEKRLHEEYWRELEAKCKRQKAEAAEKRRQEEQRRQALERRLWEESLRQELLEEEEEGEEEEEVKEEGEEGEEVGLQPRAGKVPPEEGHQSGPEEQRCTEQELGGADDPARLEAEERRREQEEAERQAEKLRQREAERQEEEQKQREAERQEEEARQCEAERQAEKLRQREAERQEEEARQREAERQAEKLRQREAERQEEELRQREEAERQEKLRQRDAESQEEELRQREAERQRAQEEDAKGMLQEEEEEAKRIEELKGKETPEPLVEEGPQSPEGESQPWLTDDADQRSPLQRDLEKPGEREREDLESAGQREIAEEPRGEGEPAEQSGDLDAHCGGVDGEGKETAQTDSPQPQERQMEGTPAPEENEATAADIDRKVEELRWQEVDERQTMPRPYTFQVSSGSRQILFPKVNLSPVTPAKDASLAPAAQEPPAPRGAASHALPSALSIPHTAILVTGAQLCGPAVNLSQIKDTACKSLLGLSEEKRPMDVPTVESRAGSGKSRPAPESPSNAAALAEWASIRSRILKNSEGDQRGDREPARAGDEPVPRARCDSRGNVRRTPPVNAKFSIMPAWQKFSDSGAETFRQSLDGESGRKKPGLAPSEETAPQPHAAAQQEVSQEPPDTTDGCKFAKDLPSFLVPGLPSPQKAASRTESTTTLDSETTSDVGNPDPAMPGGEEKASPFGIKLRRTNYSLRFHCDQQAEQKKKKRHSSTGDSVGGATPATGSVSGESEPEATFLKHGPSLPQERKPALSPRKDSAESHSSGHYVAVAQSGLPPASGQTPAPEQDRAVSKMPSMQKPALAPKPASQTPPSSPLSKLSRPHLVELLARRAGKLDSEPSETAKESSDNQPPSPSLPEELKGQKRDEKDVPEKKPASPPLPAGQQERPSLIPETGRKEKPVLQSRHSLDGSKVTEKVETAQPLWITLALQKQKGFREQQATREERKQAREAKQAEKLSKETVSVSLQPGSSRASKTAPVHKPAAPSEEKKPETAVSRLQRREQLKKSNTLPTSVTVEISDSAPSAALVKDVTKRFSTPDAAPVSTEPAWLALAKRKAKAWSDCPQIIK	-1.882	Down
sp¦P06802¦ENPP1_MOUSE (protein, UniProt P06802 1-906, looked up) Ectonucleotide …: MERDGDQAGHGPRHGSAGNGRELESPAAASLLAPMDLGEEPLEKAERARPAKDPNTYKVLSLVLSVCVLTTILGCIFGLKPSCAKEVKSCKGRCFERTFSNCRCDAACVSLGNCCLDFQETCVEPTHIWTCNKFRCGEKRLSRFVCSCADDCKTHNDCCINYSSVCQDKKSWVEETCESIDTPECPAEFESPPTLLFSLDGFRAEYLHTWGGLLPVISKLKNCGTYTKNMRPMYPTKTFPNHYSIVTGLYPESHGIIDNKMYDPKMNASFSLKSKEKFNPLWYKGQPIWVTANHQEVKSGTYFWPGSDVEIDGILPDIYKVYNGSVPFEERILAVLEWLQLPSHERPHFYTLYLEEPDSSGHSHGPVSSEVIKALQKVDRLVGMLMDGLKDLGLDKCLNLILISDHGMEQGSCKKYVYLNKYLGDVNNVKVVYGPAARLRPTDVPETYYSFNYEALAKNLSCREPNQHFRPYLKPFLPKRLHFAKSDRIEPLTFYLDPQWQLALNPSERKYCGSGFHGSDNLFSNMQALFIGYGPAFKHGAEVDSFENIEVYNLMCDLLGLIPAPNNGSHGSLNHLLKKPIYNPSHPKEEGFLSQCPIKSTSNDLGCTCDPWIVPIKDFEKQLNLTTEDVDDIYHMTVPYGRPRILLKQHHVCLLQQQQFLTGYSLDLLMPLWASYTFLRNDQFSRDDFSNCLYQDLRIPLSPVHKCSYYKSNSKLSYGFLTPPRLNRVSNHIYSEALLTSNIVPMYQSFQVIWHYLHDTLLQRYAHERNGINVVSGPVFDFDYDGRYDSLEILKQNSRVIRSQEILIPTHFFIVLTSCKQLSETPLECSALESSAYILPHRPDNIESCTHGKRESSWVEELLTLHRARVTDVELITGLSFYQDRQESVSELLRLKTHLPIFSQED	-2.366	Down
sp¦Q9EPQ7¦STAR5_MOUSE (protein, UniProt Q9EPQ7 1-213, looked up) StAR-related lipid transfer …: MDPSWATQESEAVAEKVLRYRRDASGWKKCREGNGVSISWRPSEEFPGNLYRGEGILCGTPEEVWDCIKPVASGLREKWDDNVSSFEIVQSITDMLCVSRTSTPSAAMKLISPRDFVDLVLVKKYEDGTISSNATHVEHPLCPPKPGFVRGFNHPCGCFCEPLPGDPNKTNLVTFFQTDLSGYLPQSVVDSFFPRSMAEFYPNLQKAVRKFHH	-1.896	Down
sp¦P05532¦KIT_MOUSE (protein, UniProt P05532 25-979, looked up) Mast/stem cell growth factor …: SQPSASPGEPSPPSIHPAQSELIVEAGDTLSLTCIDPDFVRWTFKTYFNEMVENKKNEWIQEKAEATRTGTYTCSNSNGLTSSIYVFVRDPAKLFLVGLPLFGKEDSDALVRCPLTDPQVSNYSLIECDGKSLPTDLTFVPNPKAGITIKNVKRAYHRLCVRCAAQRDGTWLHSDKFTLKVRAAIKAIPVVSVPETSHLLKKGDTFTVVCTIKDVSTSVNSMWLKMNPQPQHIAQVKHNSWHRGDFNYERQETLTISSARVDDSGVFMCYANNTFGSANVTTTLKVVEKGFINISPVKNTTVFVTDGENVDLVVEYEAYPKPEHQQWIYMNRTSANKGKDYVKSDNKSNIRYVNQLRLTRLKGTEGGTYTFLVSNSDASASVTFNVYVNTKPEILTYDRLINGMLQCVAEGFPEPTIDWYFCTGAEQRCTTPVSPVDVQVQNVSVSPFGKLVVQSSIDSSVFRHNGTVECKASNDVGKSSAFFNFAFKGNNKEQIQAHTLFTPLLIGFVVAAGAMGIIVMVLTYKYLQKPMYEVQWKVVEEINGNNYVYIDPTQLPYDHKWEFPRNRLSFGKTLGAGAFGKVVEATAYGLIKSDAAMTVAVKMLKPSAHLTEREALMSELKVLSYLGNHMNIVNLLGACTVGGPTLVITEYCCYGDLLNFLRRKRDSFIFSKQEEQAEAALYKNLLHSTEPSCDSSNEYMDMKPGVSYVVPTKTDKRRSARIDSYIERDVTPAIMEDDELALDLDDLLSFSYQVAKGMAFLASKNCIHRDLAARNILLTHGRITKICDFGLARDIRNDSNYVVKGNARLPVKWMAPESIFSCVYTFESDVWSYGIFLWELFSLGSSPYPGMPVDSKFYKMIKEGFRMVSPEHAPAEMYDVMKTCWDADPLKRPTFKQVVQLIEKQISDSTKHIYSNLANCNPNPENPVVVDHSVRVNSVGSSASSTQPLLVHEDA	-2.731	Down
sp¦Q9ERI2¦RB27A_MOUSE (protein, UniProt Q9ERI2 2-221, looked up) Ras-related protein Rab-27A: SDGDYDYLIKFLALGDSGVGKTSVLYQYTDGKFNSKFITTVGIDFREKRVVYRANGPDGAVGRGQRIHLQLWDTAGQERFRSLTTAFFRDAMGFLLLFDLTNEQSFLNVRNWISQLQMHAYCENPDIVLCGNKSDLEDQRAVKEEEARELAEKYGIPYFETSAANGTNISHAIEMLLDLIMKRMERCVDKSWIPEGVVRSNGHTSADQLSEEKEKGLCGC	-2.259	Down
